Test results as given in PMC2171422 (The Journal of Cell Biology, 2005).

Target: T1, protein A–Sro7p (yeast (budding yeast), UniProt Q12038 1-1033)
T1 sequence: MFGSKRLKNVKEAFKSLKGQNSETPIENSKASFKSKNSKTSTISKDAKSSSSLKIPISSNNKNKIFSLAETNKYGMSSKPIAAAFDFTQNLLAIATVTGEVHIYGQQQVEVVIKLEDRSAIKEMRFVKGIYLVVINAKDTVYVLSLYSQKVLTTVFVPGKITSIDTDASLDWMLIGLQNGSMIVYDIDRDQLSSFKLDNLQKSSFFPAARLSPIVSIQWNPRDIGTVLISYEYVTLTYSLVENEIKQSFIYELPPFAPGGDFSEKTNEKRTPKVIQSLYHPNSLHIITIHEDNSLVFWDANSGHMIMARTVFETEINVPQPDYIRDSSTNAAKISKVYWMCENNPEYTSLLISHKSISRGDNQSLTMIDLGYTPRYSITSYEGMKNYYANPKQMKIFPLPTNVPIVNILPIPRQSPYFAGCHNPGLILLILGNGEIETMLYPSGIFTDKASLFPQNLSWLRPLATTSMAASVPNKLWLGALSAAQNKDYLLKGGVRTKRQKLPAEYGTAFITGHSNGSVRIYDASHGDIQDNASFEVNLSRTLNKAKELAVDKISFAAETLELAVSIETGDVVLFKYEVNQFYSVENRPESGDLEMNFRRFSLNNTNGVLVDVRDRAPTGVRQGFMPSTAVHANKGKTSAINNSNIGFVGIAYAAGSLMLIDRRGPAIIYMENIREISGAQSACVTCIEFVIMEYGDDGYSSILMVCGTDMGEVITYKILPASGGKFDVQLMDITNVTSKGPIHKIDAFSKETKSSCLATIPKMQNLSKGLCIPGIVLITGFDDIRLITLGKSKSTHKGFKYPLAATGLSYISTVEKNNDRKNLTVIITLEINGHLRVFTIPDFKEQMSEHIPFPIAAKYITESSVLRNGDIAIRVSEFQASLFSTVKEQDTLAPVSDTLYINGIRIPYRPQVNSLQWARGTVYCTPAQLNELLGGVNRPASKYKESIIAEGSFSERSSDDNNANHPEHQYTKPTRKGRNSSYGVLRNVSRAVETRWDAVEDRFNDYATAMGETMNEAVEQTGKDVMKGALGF
Test: pull-down

B1: Exo84p NH2-terminal domain (aa 1–320) GST fusion protein (domain or fragment)
chain: MVEFSLKKARNNWKHVKKSASSPAKQKTPPSPAKPKQKTKKNPYSDLKDPATSYTLPTINARERSRVATSMQRRLSIHNTNYAPPTLDYSMPLPDMPNMIVPNDNVDSSHNNSSFTTENESVSSKGPSNSLNLSTADLSLNDSSYNKVPARSAMRNTVNPSGSNDPFNNSTSLRKMLANPHFNAKDFVHDKLGNASAITIDKFTSNLTDLSIQVQEEVKLNINKSYNEIMTVNNDLNVAMLELKRVRANINDLNEVLDQCTKIAEKRLQLQDQIDQERQGNFNNVESHSNSPALLPPLKAGQNGNLMRRDRSSVLILEKF
Q: B1 was tested. Which Kd did it give?
A: The Kd was 0.046 ± 0.006 µM.
